Where no end group is shown, it is not given here.
Experiments:
[1] = molecular target: T1, PSMA Fab (006 PSMA Fab) (biotinylated (site not given)); assay: clonal phage ELISA; biotinylated PSMA Fab on neutravidin plate, blocking buffer alone; anti-M13 HRP detection;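 further: crude clonal phage supernatants added without washing to wells pretreated with blocking buffer with or without PSMA antigen, short incubation, then washed before detecting bound phage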
T1 construct: also called Anti-PSMA Fab; anti-PSMA Fab

[2] = molecular target: T2, 006 PSMA Fab; assay: phage binding ELISA; biotinylated PSMA Fab on neutravidin plate, clonal phage supernatant, anti-M13 HRP detection; blocking buffer alone;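 further: before phage were added, wells were preincubated with blocking buffer either containing PSMA antigen or without it, and phage were then added with no wash in between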
T2 construct: also called Anti-PSMA Fab
Experimental: (§1) Clonal phage were harvested as crude supernatants and screened via standard ELISAs. […] Prior to the addition of clonal phage. wells were incubated with blocking buffer and PSMA antigen or blocking buffer alone. Without washing or aspirating, clonal phage supernatants were then added to the wells and incubated for a short time. Wells were then washed followed by detection of bound phage using a horse radish conjugated anti-M13 antibody.

[3] = molecular target: T2, 006 PSMA Fab; assay: phage binding ELISA; biotinylated PSMA Fab on neutravidin plate pre-incubated with PSMA antigen as competitor, clonal phage supernatant, anti-M13 HRP detection
Experimental: as §1

[4] = molecular target: T3, PSMA Fab (biotinylated (site not stated)); assay: clonal phage ELISA; PSMA Fab wells pre-incubated with PSMA antigen as competitor; anti-M13-HRP detection
T3 construct: also called Anti-PSMA Fab; 006 PSMA Fab

[5] = molecular target: T3, PSMA Fab; assay: clonal phage ELISA; biotinylated PSMA Fab on neutravidin plate; bound phage detected with anti-M13-HRP
Experimental: as §1

B1: Phage-2687 (peptide)
peptide: VHYWCIPAWMCNKS
modifications: cysteine pairing not given here; also: displayed on bacteriophage as fusion to pIII, fusion and linker not given here
notes: Tested as clonal phage supernatant; also called Peptide-180 library clone
Phage binding ELISA signal, Anti-PSMA Fab [1]: 0.841

B2: Phage-2682 (peptide)
peptide: DVKWCIPSWMCQDV
modifications: cysteine pairing not given here; also: displayed on bacteriophage as fusion to pIII, fusion and linker not given here
notes: as for B1
Phage binding ELISA signal, Anti-PSMA Fab [1]: 0.859

B3: Phage-2685 (peptide)
peptide: PMKLCSPPWMCFYD
modifications: cysteine pairing not given here; also: displayed on bacteriophage as fusion to pIII, fusion and linker not given here
notes: as for B1
Phage binding ELISA signal, Anti-PSMA Fab [1]: 0.85

B4: Phage-2695 (peptide)
peptide: HWRMCVPTWMCHLD
modifications: cysteine pairing not given here; also: displayed on bacteriophage as fusion to pIII
Phage binding ELISA signal, Anti-PSMA Fab [2]: 0.83 | Phage binding ELISA signal, Anti-PSMA Fab with PSMA antigen [3]: 0.15

B5: Phage-2683 (peptide)
peptide: EYAWCIPEWMCGWI
modifications: cysteine pairing not given here; also: displayed on bacteriophage as fusion to pIII, fusion and linker not given here
notes: as for B1
Phage binding ELISA signal, Anti-PSMA Fab [1]: 0.858

B6: Phage-2690 (peptide)
peptide: LVKWCTPTWMCVGM
modifications: cysteine pairing not given here; also: displayed on bacteriophage as fusion to pIII, fusion and linker not given here
notes: as for B1
Phage binding ELISA signal, Anti-PSMA Fab [1]: 0.837

B7: Phage-2688 (peptide)
peptide: EAHLCKPLWMCEFG
modifications: cysteine pairing not given here; also: displayed on bacteriophage as fusion to pIII, fusion and linker not given here
notes: as for B1
Phage binding ELISA signal, Anti-PSMA Fab [1]: 0.84

DNKMCIPVWMCERF [Phage-2698]
Phage binding ELISA signal, Anti-PSMA Fab [2]: 0.824 | Phage binding ELISA signal, Anti-PSMA Fab with PSMA antigen [3]: 0.0685

DNMLCRPSWMCEGL [Phage-2701]
Phage binding ELISA signal, Anti-PSMA Fab [2]: 0.816 | Phage binding ELISA signal, Anti-PSMA Fab with PSMA antigen [3]: 0.0762

QVPWCTPAWMCERA [Phage-2702]
Phage binding ELISA signal, Anti-PSMA Fab [2]: 0.814 | Phage binding ELISA signal, Anti-PSMA Fab with PSMA antigen [3]: 0.126

EEMWCIPVWMCEHQ [Phage-2696]
Phage binding ELISA signal, Anti-PSMA Fab [2]: 0.829 | Phage binding ELISA signal, Anti-PSMA Fab with PSMA antigen [3]: 0.0935

B8: Phage-2684 (peptide)
peptide: SEAWCIPSWMCRGD
modifications: cysteine pairing not given here; also: fused to phage pIII (clonal phage display)
notes: as for B1
Phage binding ELISA signal, Anti-PSMA Fab [1]: 0.857

VEMLCKPAWMCANQ (cysteine pairing not given here; also: displayed on phage as pIII fusion) [Phage-2626]
Phage binding ELISA signal, Anti-PSMA Fab with PSMA antigen [4]: 0.0829 | Phage binding ELISA signal, Anti-PSMA Fab [5]: 0.986

B9: Phage-2691 (peptide)
peptide: IVKWCTPPWMCERP
modifications: cysteine pairing not given here; also: displayed on bacteriophage as fusion to pIII, fusion and linker not given here
notes: as for B1
Phage binding ELISA signal, Anti-PSMA Fab [1]: 0.834

VTKLCIPEWMCASD (cysteine pairing not given here; also: displayed on phage as pIII fusion) [Phage-2630]
Phage binding ELISA signal, Anti-PSMA Fab with PSMA antigen [4]: 0.0961 | Phage binding ELISA signal, Anti-PSMA Fab [5]: 0.975

FVKWCTPSWMCESQ [Phage-2697]
Phage binding ELISA signal, Anti-PSMA Fab [2]: 0.828 | Phage binding ELISA signal, Anti-PSMA Fab with PSMA antigen [3]: 0.0785

AEKWCIPEWMCEQL [Phage-2632]
Phage binding ELISA signal, Anti-PSMA Fab with PSMA antigen [4]: 0.0717 | Phage binding ELISA signal, Anti-PSMA Fab [5]: 0.972

B10: Phage-2694 (peptide)
peptide: GEKWCTPLWMCEWY
modifications: cysteine pairing not given here; also: displayed on bacteriophage as fusion to pIII, fusion and linker not given here
notes: as for B1
Phage binding ELISA signal, Anti-PSMA Fab [1]: 0.832

B11: Phage-2680 (peptide)
peptide: DMNWCSPPWMCFGF
modifications: cysteine pairing not given here; also: displayed on bacteriophage as fusion to pIII, fusion and linker not given here
notes: as for B1
Phage binding ELISA signal, Anti-PSMA Fab [1]: 0.873

B12: Phage-2693 (peptide)
peptide: MGNWCTPSWMCEGL
modifications: cysteine pairing not given here; also: displayed on bacteriophage as fusion to pIII, fusion and linker not given here
notes: as for B1
Phage binding ELISA signal, Anti-PSMA Fab [1]: 0.833

VMSWCVPAWMCETP [Phage-2631]
Phage binding ELISA signal, Anti-PSMA Fab with PSMA antigen [4]: 0.0614 | Phage binding ELISA signal, Anti-PSMA Fab [5]: 0.973

B13: Phage-2686 (peptide)
peptide: QNIRCVPPWMCENL
modifications: cysteine pairing not given here; also: displayed on bacteriophage as fusion to pIII, fusion and linker not given here
notes: as for B1
Phage binding ELISA signal, Anti-PSMA Fab [1]: 0.844

LNNWCTPLWMCQMF [Phage-2628]
Phage binding ELISA signal, Anti-PSMA Fab with PSMA antigen [4]: 0.201 | Phage binding ELISA signal, Anti-PSMA Fab [5]: 0.979

B14: Phage-2703 (peptide)
peptide: TIKWCTPSWMCAEI
modifications: cysteine pairing not given here; also: displayed on bacteriophage as fusion to pIII
Phage binding ELISA signal, Anti-PSMA Fab [2]: 0.811 | Phage binding ELISA signal, Anti-PSMA Fab with PSMA antigen [3]: 0.105

VVPRCTPPWMCLVS [Phage-2629]
Phage binding ELISA signal, Anti-PSMA Fab with PSMA antigen [4]: 0.0785 | Phage binding ELISA signal, Anti-PSMA Fab [5]: 0.976

GSHWCEPLWMCSAF [Phage-2699]
Phage binding ELISA signal, Anti-PSMA Fab [2]: 0.824 | Phage binding ELISA signal, Anti-PSMA Fab with PSMA antigen [3]: 0.0853

WEKWCTPSGMCDAR [Phage-2627]
Phage binding ELISA signal, Anti-PSMA Fab with PSMA antigen [4]: 0.106 | Phage binding ELISA signal, Anti-PSMA Fab [5]: 0.982

B15: Phage-2681 (peptide)
peptide: GEKWCTPPWMCMFQ
modifications: cysteine pairing not given here; also: displayed on bacteriophage as fusion to pIII, fusion and linker not given here
notes: as for B1
Phage binding ELISA signal, Anti-PSMA Fab [1]: 0.861

IEKWCTPPWMCESS [Phage-2700]
Phage binding ELISA signal, Anti-PSMA Fab [2]: 0.824 | Phage binding ELISA signal, Anti-PSMA Fab with PSMA antigen [3]: 0.104

B16: Phage-2692 (peptide)
peptide: MEKWCIPQWMCEQF
modifications: cysteine pairing not given here; also: displayed on bacteriophage as fusion to pIII, fusion and linker not given here
notes: as for B1
Phage binding ELISA signal, Anti-PSMA Fab [1]: 0.834

B17: Phage-2689 (peptide)
peptide: IKPLCSPPWMCSMY
modifications: cysteine pairing not given here; also: displayed on bacteriophage as fusion to pIII, fusion and linker not given here
notes: as for B1
Phage binding ELISA signal, Anti-PSMA Fab [1]: 0.839

THHWCIPAWMCEQD [Phage-2633]
Phage binding ELISA signal, Anti-PSMA Fab with PSMA antigen [4]: 0.0809 | Phage binding ELISA signal, Anti-PSMA Fab [5]: 0.967
